Reference: article PMC4058522, “Structural Basis for Phosphorylation-Dependent Recruitment of Tel2 to Hsp90 by Pih1” (Structure(London, England:1993), 2014)
Changes are numbered by the printed parent chain. Names may count otherwise. Square brackets hold non-standard residues; d marks the D form. Ends that are not written are not given here. pT = C[C@@H](OP(=O)(O)O)[C@H](N)C(=O)O; pS = N[C@@H](COP(=O)(O)O)C(=O)O

T1: Tah1 (yeast, full-length) (yeast, UniProt P25638 1-111)
T1 construct: Tah1, S. cerevisiae, full length (C-terminal residue Ser 111); Selenomethionine-labelled Tah1 was used for the crystal structure; also called Tah1p; SeMetTah1
T1 sequence (looked up): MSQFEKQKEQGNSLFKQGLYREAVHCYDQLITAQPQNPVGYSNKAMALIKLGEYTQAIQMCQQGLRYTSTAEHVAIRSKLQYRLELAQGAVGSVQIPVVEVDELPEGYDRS

T2: FLAG-tagged Tah1 (yeast, UniProt P25638 1-111)
T2 construct: Tah1p, S. cerevisiae; also called FLAG-Tah1; Flag-Tah1p
T2 sequence: T1 sequence (looked up)

B1: human Hsp90 C-terminal peptide DDTSRMEEVD (peptide)
peptide: DDTSRMEEVD
notes: human Hsp90 C-terminal peptide; also called C-terminal Hsp90 peptide
B2: human Spagh/RPAP3 120-395 (tandem TPR region) (domain or fragment, UniProt Q9H6T3 120-395, looked up)
chain: ESEEDGIHVDSQKALVLKEKGNKYFKQGKYDEAIDCYTKGMDADPYNPVLPTNRASAYFRLKKFAVAESDCNLAVALNRSYTKAYSRRGAARFALQKLEEAKKDYERVLELEPNNFEATNELRKISQALASKENSYPKEADIVIKSTEGERKQIEAQQNKQQAISEKDRGNGFFKEGKYERAIECYTRGIAADGANALLPANRAMAYLKIQKYEEAEKDCTQAILLDGSYSKAFARRGTARTFLGKLNEAKQDFETVLLLEPGNKQAVTELSKIKK
notes: Spagh/RPAP3, human, residues 120-395, tandem TPR region; GST fusion with a PreScission site; also called Spagh/RPAP3-TPR2 (label of the tandem region in the text); wild-type Spagh/RPAP3
B3: Spagh/RPAP3 120-395 N172E (domain or fragment, human, UniProt Q9H6T3 120-395, looked up)
chain: B2 chain with N53E
notes: Spagh/RPAP3, human, residues 120-395, N172E in TPR1; also called N172E-TPR1 mutant
B4: Spagh/RPAP3 120-395 N321E (domain or fragment, human, UniProt Q9H6T3 120-395, looked up)
chain: B2 chain with N202E
notes: Spagh/RPAP3, human, residues 120-395, N321E in TPR2; also called N321E-TPR2 mutant
B5: Tel2 peptide with pSer492 replaced by phosphothreonine (peptide)
peptide: QGSDSELD[pT]DDEF
notes: also called phosphothreonine Tel2 peptide
B6: dimeric C-terminal domain of Hsp90 (Hsp90 600-709) (domain or fragment)
chain: not shown
notes: Hsp90 residues 600-709, dimeric C-terminal domain; also called cHsp90; C-Hsp90
B7: Mre11 phosphopeptide MANDpSDDSI (peptide)
peptide: MAND[pS]DDSI
notes: Mre11, phosphorylation site 554-MANDpSDDSIS-563 found among sites in human proteins
B8: Tah1p-Pih1p 187-344 complex (complex, yeast)
chain 1: T1 sequence (looked up)
chain 2: HKIIEEEAGDPMSILRGRNDDGDDNNDPDDGTLPPLFPIENKISGAKIEEIDKNEIAHRNLKQAPAPAPAPHEQQEDVPEYEVKMKRFKGAAYKLRILIENKAPNSKPDRFSPSYNFAENILYINGKLSIPLPRDIVVNAADIKIFHIRKERTLYIYI
notes: Tah1, S. cerevisiae, full length; also called Tah1-Pih1-CS heterodimer

What was measured:
Conditions in all cases: both partners purified
[1] = target: B2; experiment: ITC; 2 mM … injected into 80 μM Spagh/RPAP3 120-395; 10 mM Tris pH 7.5, 5 mM NaCl; 10°C; two site fitting
[2] = target: B2; experiment: ITC; 2 mM … injected into 80 μM Spagh/RPAP3 120-395; 10 mM Tris pH 7.5, 5 mM NaCl; 30°C; two site fitting
[3] = target: B3; experiment: ITC; 2 mM … injected into 80 μM Spagh/RPAP3 120-395 mutants (N172E, N321E, N172E-N321E); 10 mM Tris pH 7.5, 5 mM NaCl; temperature not given; two site model
[4] = target: B4; experiment: as above
His6-Hsp90β = target: T3, His6-Hsp90β (human, UniProt P08238 1-724); experiment: pull-down; His6-Hsp90β as bait, Spagh/RPAP3 120-395 tandem TPR segment (wild type and mutants) as prey
T3 construct: Hsp90 beta, human; also called His-tagged Hsp90; human Hsp90β
T3 sequence (P08238 whole entry): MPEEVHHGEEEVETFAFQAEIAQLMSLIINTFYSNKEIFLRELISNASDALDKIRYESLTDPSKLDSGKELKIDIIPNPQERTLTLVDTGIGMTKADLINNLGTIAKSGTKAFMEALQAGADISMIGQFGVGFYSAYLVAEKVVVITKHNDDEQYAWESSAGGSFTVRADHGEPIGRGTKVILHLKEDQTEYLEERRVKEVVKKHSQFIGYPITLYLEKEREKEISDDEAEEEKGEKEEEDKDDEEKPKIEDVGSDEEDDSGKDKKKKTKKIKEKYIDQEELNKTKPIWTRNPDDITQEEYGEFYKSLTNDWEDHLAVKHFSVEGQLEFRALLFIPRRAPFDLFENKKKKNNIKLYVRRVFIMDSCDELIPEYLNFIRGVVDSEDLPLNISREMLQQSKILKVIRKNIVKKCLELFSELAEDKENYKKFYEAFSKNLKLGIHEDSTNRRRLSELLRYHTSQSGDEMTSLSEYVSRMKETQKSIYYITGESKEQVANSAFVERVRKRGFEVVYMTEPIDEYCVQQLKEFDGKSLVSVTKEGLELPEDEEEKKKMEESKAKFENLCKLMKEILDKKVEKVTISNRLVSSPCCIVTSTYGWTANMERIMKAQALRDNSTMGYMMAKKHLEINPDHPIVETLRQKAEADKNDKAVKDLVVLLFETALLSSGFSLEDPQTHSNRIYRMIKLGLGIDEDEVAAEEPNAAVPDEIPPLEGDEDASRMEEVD

[5] = target: T4, mouse Pih1 PIH domain 1-200 (His-mPih1 1-200) (mouse, UniProt Q9CQJ2 1-200); experiment: ITC; peptides at 350 μM injected into 30 μM Pih1 (mPIH domain) at 30°C; 20 mM Tris pH 7.5, 5 mM NaCl
T4 construct: Pih1 (Pih1D1), mouse, residues 1-200; SeMet protein was used for the crystal structure 4CKT; The ITC methods say only 'Pih1' / 'mPIH domain'; also called mPIH domain; Pih1D1
T4 sequence (Q9CQJ2 1-200): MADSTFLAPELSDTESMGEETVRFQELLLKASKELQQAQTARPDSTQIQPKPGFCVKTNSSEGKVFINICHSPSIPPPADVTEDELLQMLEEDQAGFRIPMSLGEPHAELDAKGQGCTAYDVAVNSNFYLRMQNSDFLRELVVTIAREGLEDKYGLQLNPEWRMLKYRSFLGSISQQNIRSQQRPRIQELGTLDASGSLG

[6] = target: T1, Tah1 (yeast, full-length); experiment: SEC; calibrated gel-filtration column; cHsp90, Tah1-Pih1p 187-344 and their mixture
[7] = target: B8; experiment: as above
FLAG-tagged Tah1 = target: T2, FLAG-tagged Tah1; experiment: co-IP; 70 μM Flag-Tah1p, Hsp90 600-709 and increasing concentrations of Cpr6 in 20 mM HEPES pH 7.5, 150 mM NaCl, 10% glycerol, 0.5% Igepal, 2 mM EDTA; Anti-Flag M2 magnetic beads; SDS-PAGE
[8] = target: T5, Cpr6 (monomeric TPR-domain Hsp90 cochaperone) (UniProt P53691 1-371); experiment: as above
T5 construct: Cpr6, TPR-domain Hsp90 cochaperone
T5 sequence (P53691 whole entry): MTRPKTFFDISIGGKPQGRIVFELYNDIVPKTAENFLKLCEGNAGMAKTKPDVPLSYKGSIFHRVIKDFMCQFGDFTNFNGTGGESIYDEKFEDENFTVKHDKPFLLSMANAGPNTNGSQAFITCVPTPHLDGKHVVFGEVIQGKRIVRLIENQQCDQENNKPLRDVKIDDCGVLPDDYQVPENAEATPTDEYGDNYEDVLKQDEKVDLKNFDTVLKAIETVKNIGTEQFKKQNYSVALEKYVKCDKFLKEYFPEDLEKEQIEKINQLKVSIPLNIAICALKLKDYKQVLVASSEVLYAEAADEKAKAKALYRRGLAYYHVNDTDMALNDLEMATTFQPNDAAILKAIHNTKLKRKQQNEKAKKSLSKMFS

[9] = target: B6; experiment: SEC; calibrated gel-filtration column; cHsp90, Tah1-Pih1p 187-344 and their mixture

## B1
[1]
  KD of the moderate-affinity site (two site fitting): 24 µM
  KD of the tight site (two site fitting): 1 µM
[2]
  KD of the moderate-affinity site (two site fitting): 23.6 µM
  KD of the tight site (two site fitting): 1.49 µM
  stoichiometry N: ~2 peptides per Spagh/RPAP3
[3]
  KD of the TPR1 site (mutated; two site model): ~231 µM
[4]
  KD of the TPR1 site (non-mutated; two site model): 0.94 µM

## B2
His6-Hsp90β
  binding result: binds

## B3
His6-Hsp90β
  binding result: binds

## B4
His6-Hsp90β
  binding result: binds

## B5
[5]
  Kd: 45.7 µM

## B6
[6]
  binding result: binds
[7]
  binding result: binds
FLAG-tagged Tah1
  binding result: binds
[8]
  binding result: binds

## B7
[5]
  Kd: 6.4 µM

## B8
[9]
  stoichiometry N: 1 Tah1-Pih1 heterodimer per cHsp90 chain (2:2:2)
